The results in this text go back to patent US20090324603A1 (VAN ANDEL RESEARCH INSTITUTE, published 2009).

The target in experiment [1] is T1, recombinant c-Met antigen (human, UniProt P08581 25-932, limits assumed).
T1 construct: also called immobilized Met antigen; human Met antigen
Nature of the experiment: non-competitive ELISA, Kd of scFv-S1 against Kd of the original Fab.
Procedure: (§1) The most commonly used formula was established by David Beatty and the equation was Kaff=(n−1)/(2{n[Ab′]ₜ−[Ab]ₜ}) (n=[Ag]/[Ag′]). This method utilized OD-50 of the sigmoid curve and obviated the need for affinity purification of antibody used as standard. Using serial dilutions of both antigen ([Ag], [Ag′]) and antibody (scFv antibody), the affinity constant (Kaff) was measured by non-competitive ELISA. Two sigmoid curves of optical density (OD) versus logarithms of antibody concentrations were estimated by SPSS 10.0 software. The maximum value of OD (OD-100) of each curve was computed respectively and OD-50, half of OD-100, was obtained. Then the concentrations of antibody corresponding to OD-50 on the curves, named [Ab]ₜ and [Ab′]ₜ were calculated. For [Ag′]=½[Ag], Kaff=1/{2[Ab′]ₜ−[Ab]ₜ}.

Experiment [2] has as its target T1, recombinant c-Met antigen. Nature of the experiment: non-competitive ELISA with serial dilutions of both Met and scFv (Beatty method). On the technique in general: An ELISA detects its analyte on a solid surface through an enzyme-linked reagent.
Procedure: as §1
For experiment [3], the target named is human c-Met (HGF/SF receptor) on S114 and MKN45 cells (human, UniProt P08581 25-1390). The experiment can be described thus: cell-based or functional assay.
Chain of human c-Met (HGF/SF receptor) on S114 and MKN45 cells (P08581 25-1390): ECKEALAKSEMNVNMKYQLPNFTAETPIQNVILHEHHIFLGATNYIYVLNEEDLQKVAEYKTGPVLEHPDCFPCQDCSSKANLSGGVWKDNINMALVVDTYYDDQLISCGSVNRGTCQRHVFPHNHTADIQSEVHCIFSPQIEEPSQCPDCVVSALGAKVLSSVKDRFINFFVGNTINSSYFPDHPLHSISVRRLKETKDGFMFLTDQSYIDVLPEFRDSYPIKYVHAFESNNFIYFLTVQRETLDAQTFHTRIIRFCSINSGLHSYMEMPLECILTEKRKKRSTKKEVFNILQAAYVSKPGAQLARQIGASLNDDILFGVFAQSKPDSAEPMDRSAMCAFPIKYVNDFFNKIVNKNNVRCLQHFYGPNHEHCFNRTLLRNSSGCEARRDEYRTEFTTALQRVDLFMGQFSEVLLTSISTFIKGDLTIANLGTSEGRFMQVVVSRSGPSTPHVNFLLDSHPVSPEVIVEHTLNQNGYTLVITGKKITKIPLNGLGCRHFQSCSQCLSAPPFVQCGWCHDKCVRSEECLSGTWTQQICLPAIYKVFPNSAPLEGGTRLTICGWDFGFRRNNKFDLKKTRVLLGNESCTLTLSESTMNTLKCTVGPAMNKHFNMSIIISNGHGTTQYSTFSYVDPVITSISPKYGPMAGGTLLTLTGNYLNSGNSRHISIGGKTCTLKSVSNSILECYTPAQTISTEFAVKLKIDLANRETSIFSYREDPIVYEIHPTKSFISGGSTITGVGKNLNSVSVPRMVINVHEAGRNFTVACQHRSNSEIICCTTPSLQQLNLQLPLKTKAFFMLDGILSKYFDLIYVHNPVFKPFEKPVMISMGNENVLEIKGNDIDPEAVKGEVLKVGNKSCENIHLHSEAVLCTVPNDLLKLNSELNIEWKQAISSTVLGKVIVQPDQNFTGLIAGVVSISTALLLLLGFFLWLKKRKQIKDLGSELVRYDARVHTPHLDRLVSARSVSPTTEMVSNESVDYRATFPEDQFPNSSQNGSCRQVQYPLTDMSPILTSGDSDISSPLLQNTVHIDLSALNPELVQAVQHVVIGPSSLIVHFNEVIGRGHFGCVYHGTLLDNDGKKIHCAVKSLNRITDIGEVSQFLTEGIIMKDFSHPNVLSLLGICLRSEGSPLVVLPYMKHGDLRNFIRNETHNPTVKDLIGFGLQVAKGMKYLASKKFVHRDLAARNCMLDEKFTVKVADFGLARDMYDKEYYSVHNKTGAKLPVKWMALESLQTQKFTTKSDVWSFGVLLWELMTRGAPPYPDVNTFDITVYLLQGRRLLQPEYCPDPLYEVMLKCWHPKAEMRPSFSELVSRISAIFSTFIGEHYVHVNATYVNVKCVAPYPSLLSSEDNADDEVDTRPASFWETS

T1 sequence (P08581 25-932 limits assumed): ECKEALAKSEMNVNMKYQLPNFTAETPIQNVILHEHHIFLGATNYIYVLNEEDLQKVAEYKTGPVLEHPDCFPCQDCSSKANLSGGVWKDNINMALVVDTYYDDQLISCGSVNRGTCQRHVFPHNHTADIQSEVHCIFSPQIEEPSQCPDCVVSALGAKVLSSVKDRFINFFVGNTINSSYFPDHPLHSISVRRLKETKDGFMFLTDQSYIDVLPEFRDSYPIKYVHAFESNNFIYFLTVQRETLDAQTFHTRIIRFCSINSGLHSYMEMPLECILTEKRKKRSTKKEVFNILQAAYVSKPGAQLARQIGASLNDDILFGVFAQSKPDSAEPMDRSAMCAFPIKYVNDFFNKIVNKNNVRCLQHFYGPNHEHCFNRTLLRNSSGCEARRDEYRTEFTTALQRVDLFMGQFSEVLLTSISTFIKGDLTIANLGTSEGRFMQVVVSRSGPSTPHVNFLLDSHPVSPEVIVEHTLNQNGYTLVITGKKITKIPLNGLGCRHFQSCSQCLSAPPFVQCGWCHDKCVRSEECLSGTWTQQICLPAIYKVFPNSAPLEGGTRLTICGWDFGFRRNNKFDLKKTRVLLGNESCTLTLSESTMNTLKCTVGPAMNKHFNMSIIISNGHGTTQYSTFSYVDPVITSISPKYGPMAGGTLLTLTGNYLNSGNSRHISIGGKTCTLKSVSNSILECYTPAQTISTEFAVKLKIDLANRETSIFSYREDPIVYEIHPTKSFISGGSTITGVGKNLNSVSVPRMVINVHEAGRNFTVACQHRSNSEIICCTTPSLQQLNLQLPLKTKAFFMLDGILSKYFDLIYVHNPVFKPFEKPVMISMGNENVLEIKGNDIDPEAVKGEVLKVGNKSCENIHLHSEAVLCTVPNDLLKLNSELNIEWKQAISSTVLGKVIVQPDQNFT

B1: anti-Met scFv-S1 (scFv)
scFv: ELQMTQSPSLLSASTGDRVTISCRASQSISSYLNWYQQKPGKAPKLLIYTRSSLQSGVPSRFSGSGSGTDFTLTISSLQPEDFATYYCQQSYSTPHTFGQGTKLEIKGGSSRSSSSGGGGSGGGGEVQLVESGGGVVQPGRSLRLSCAASGFTFSSYAMHWVRQAPGKGLEWVAVIWYDGSNRYYADSVKGRFTISRDNSKNTLYLQMNSLRAEDTAVYYCASQATEGLIWGQGTLVTVSP
notes: also called scFv Si; S1 phage
As usually defined, the Kd is a measure of binding affinity in units of concentration. In the case of B1, the “fold increase in affinity against the original Fab” value in experiment [1] is 117 times. In addition, the dissociation constant Kd in experiment [2] came out at 51.5 nM.

B2: anti-Met Fab-Met-2 (Fab, V domains shown)
VH: EVQLVESGGGVVQPGRSLRLSCAASGFTFSSYAMHWVRQAPGKGLEWVAVIWYDGSNRYYADSVKGRFTISRDNSKNTLYLQMNSLRAEDTAVYYCASQATEGLIWGQGTLVTVSP
VL: ELQMTQSPSLLSASTGDRVTISCRASQSISSYLNWYQQKPGKAPKLLIYTRSSLQSGVPSRFSGSGSGTDFTLTISSLQPEDFATYYCQQSYSTPHTFGQGTKLEIKR
Regarding B2, in experiment [3], the “inhibition ratio of S114 cells incubated with 800 ng Fab and Hum-ZAP, 72 hrs” value was determined as 73.8%; the “inhibition ratio of S114 cells incubated with 800 ng Fab and Hum-ZAP, 96 hrs” value is 62.7%.
